One block for each binder: values may come before it. Ends that are not written are not given here.
B1: Annexin I peptide (peptide)
peptide: Ac-AMVSEFLKQAWFIE
B2: S100A11 (natural protein, human, UniProt P31949 1-105, looked up)
chain: MAKISSPTETERCIESLIAVFQKYAGKDGYNYTLSKTEFLSFMNTELAAFTKNQKDPGVLDRMMKKLDTNSDGQLDFSEFLNLIGGLAMACHDSFLKAVPSQKRT

Experiments:
S100A11 [1] = biological target: B2; experiment: ITC
S100A6 [2] = biological target: T1, S100A6 (human, UniProt P06703 1-90); experiment: ITC
S100A11 [3] = biological target: B2; experiment: other fluorescence titration
S100A6 [4] = biological target: T1, S100A6; experiment: other fluorescence titration
Annexin I peptide = biological target: B1; experiment: ITC
S100A10 = S100A10 (human, UniProt P60903 1-97); experiment: ITC
S100A11 [5] = biological target: B2; experiment: ITC; remark: listed apart in the source

S100A10, sequence (P60903 whole entry): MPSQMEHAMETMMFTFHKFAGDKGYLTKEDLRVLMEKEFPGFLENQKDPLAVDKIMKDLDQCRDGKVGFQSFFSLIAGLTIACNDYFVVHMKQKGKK

Binder: B1
- Kd (S100A11 [1]): 5 ± 2 µM
- Kd (S100A6 [2]): 13 ± 4 µM
- Kd (S100A11 [3]): 5 ± 1 µM
- Kd (S100A6 [4]): 17 ± 4 µM

Binder: B2
- dH at 15°C (Annexin I peptide): -0.956 kcal/mol
- dH at 35°C (Annexin I peptide): -7.17 kcal/mol
- stoichiometry N (Annexin I peptide): 2 binding sites per dimer

- stoichiometry N (S100A10): 2 binding sites per dimer
- stoichiometry N (S100A11 [5]): 2 binding sites per dimer
Binder: Ac-STVHEILSKLSLEGY [Annexin II peptide]
